Laboratory results reported in the nanobody polyreactivity screen of Harvey et al. (2022).

Assay: yeast display, Sf9 membrane polyspecificity reagent, FACS + sequencing; frameworks hold sequencing errors
Method in brief: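 Galactose-induced (36–48 hours) yeast carrying a synthetic nanobody display library were exposed to 10% biotinylated, detergent-solubilized Sf9 membrane reagent at 4 °C for 1 hour. FACS followed streptavidin microbead enrichment, using low and high (top ~1%) gates for expression (anti-HA) and reagent binding (streptavidin). Colony PCR, MiSeq 2 × 250 sequencing and CDR-length filtering followed. Labels for polyreactivity reflect the gate of origin.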

In the case of “QVQLVESGGGLVQAGGSLRLSCAASGSIFNQYAMGWYRQAPGKERELVAAISSGSTYYADSVKGRFIISRDNAETTVYLQMYSLKPEDTAVYYCNAYYVNYVSNYESWGQGTQVTVSS”, the “polyreactivity (PSR sort gate)” value is reported as “high polyreactivity”.
For “QVQLVESGGGLVQAGGSLRLSCAASGSIFNRNAMGWYRQAPGKERELVAVISWTGDGTYYADSVKGRFTISRDNAKNTVYLQMNSLKPEDTAVYYCAARWYVQFYHRPVSKRYYWGQGTQVTVSS”, the “polyreactivity (PSR sort gate)” value was “high polyreactivity”.
With “QVQLVESGGGLVQAGGSLRLSCAASGSIFNRYAMGWYRQAPRKERELVAAITAGGSSTYYADSVKGRFTISRDNAKNTVYLQMNSLKPEDTAVYYCNAVWWHPKDYDYWGQGTQVTVSS” the “polyreactivity (PSR sort gate)” value was “low polyreactivity”.
With “QVQLVESGGGLVQAGGSLRLSCAASGSIFNRYTMGWYRQAPGKETELVAAISRGDTTYYADSVKGRFTISRDNAKNTVYLEMNSLKPEDTAVYYWAKAYDTTLTYNYWGQVTQVTVSS” the “polyreactivity (PSR sort gate)” value was “low polyreactivity”.
For “QVQLVESGGGLVQAGGSLRLSCAASGSIFNSNAMGWSRQAPGKERELVAVISWSDGSTRYADSVKGRFTISRDNAKNTVYLQMNSLKPEDTAVYYCNADLVYYYRQEVDYWGQGTQVTVSS”, the “polyreactivity (PSR sort gate)” value was “low polyreactivity”.
With “QVQLVESGGGLVQAGGSLRLSCAASGSIFNTYVMGWYRQAPGKERELVAAITYSAGGDTYYADSVKGRFTISRDNAKNTVYLQMNSLKPEDTAVYYCAAEYTYLDAYGSYDYWGQGTQVTVSS” the “polyreactivity (PSR sort gate)” value was “low polyreactivity”.
For “QVQLVESGGGLVQAGGSLRLSCAASGSIFNWYAMGWYRRAPGKERELVAAISQSGTRTFYADSVKGRFTISRDNAKNTVYLQMNSLKPEDTAVYYCNTVKAGYDGYDRDYWGQGTQVTVSS”, the “polyreactivity (PSR sort gate)” value was “high polyreactivity”.
In the case of “QVQLVESGGGLVQAGGSLRLSCAASGSIFNYNAMGWYRQAPGKERELVAGITTSGGSTYYADSVKGRFTISRDNAKNTVYLQMNSLKPEDTAVYYCAAYDYISSTYFLDDYWGQGTQVTVSS”, the “polyreactivity (PSR sort gate)” value is reported as “low polyreactivity”.
With “QVQLVESGGGLVQAGGSLRLSCAASGSIFNYNMGWYRQAPGKERELVAAITSSGGSTYYADSVKGRFTISRDNAKNTVYLQMNSLKPEDTAVYYCAAPISRSAGWDSYDYWGQGTQVTVSS” the “polyreactivity (PSR sort gate)” value was “low polyreactivity”.
With “QVQLVESGGGLVQAGGSLRLSCAASGSIFNYYAMGWYRQAAGKERELVAVITSGGSTYYAESVKGRFTISRDNAKYSVYLQMNSLKPEDTAVYFCAADDGTGEASVSSNLYDYWGQGTQVTVSS” the “polyreactivity (PSR sort gate)” value was “low polyreactivity”.
For “QVQLVESGGGLVQAGGSLRLSCAASGSIFNYYTMGWYRQAPGKERELVAAISYRGGRTYYADSVKGRFTISRDNAKNTVYLQMNSLKPEDTAVYYCNAVTRIYEVDYWGQGTQVTVSS”, the “polyreactivity (PSR sort gate)” value was “high polyreactivity”.
With “QVQLVESGGGLVQAGGSLRLSCAASGSIFNYYTMGWYRQAPGKERELVARITSGDSTYYADSVKGRFTISRDNAKNTVYLQMNSLKPEDTAVYYCNAGLYRRRSTYYRQAYNYWGQGTQVTVSS” the “polyreactivity (PSR sort gate)” value was “high polyreactivity”.
For “QVQLVESGGGLVQAGGSLRLSCAASGSIFPANAMGWYRQAPGKERELVAGISERGSSTYYAVSVKGRFTISRDNAKNTVYLQMNSLKPEDTAVYYCAADLVGRYWSSTHNWARGDYWGQVTQVTVSS”, the “polyreactivity (PSR sort gate)” value was “low polyreactivity”.
With “QVQLVESGGGLVQAGGSLRLSCAASGSIFPAYDMGWYRQAPGKERELVAAIDRGGSTYYADSVKGRFTISRDNAKNTVYLQMNSLKPEDTAVYYCATGYWNTSVYVRLEKRDYWGQGTQVTVSS” the “polyreactivity (PSR sort gate)” value was “low polyreactivity”.
In the case of “QVQLVESGGGLVQAGGSLRLSCAASGSIFPDNTMGWYRQAPGKERELVAAIDGRGGTTYYADSVKGRFTISRDNAKNTVYLQMNSLKPEDTAVYYCNAGVWTYWHIEMDYWGQGTQVTVSS”, the “polyreactivity (PSR sort gate)” value is reported as “low polyreactivity”.
For “QVQLVESGGGLVQAGGSLRLSCAASGSIFPDNTMGWYRQSPGKDRELVGAIDGRGGTTYYADSVKGSFTISRDNAKNTVYLQMNSLKPEDTAVYYCARDIGHSASYDYWGQGTQVTVSS”, the “polyreactivity (PSR sort gate)” value was “low polyreactivity”.
In the case of “QVQLVESGGGLVQAGGSLRLSCAASGSIFPDYALGWYRQPPGKERELVAAITWRDDSTYYADSVKGRFTSSRDKAKNTVYLQMNSLKPEETAVYYCNASAMDPLYAKDDYWGQGTQVTVSS”, the “polyreactivity (PSR sort gate)” value is reported as “low polyreactivity”.
In the case of “QVQLVESGGGLVQAGGSLRLSCAASGSIFPDYAMGWYRTAPGKERELVAAISWDGGRTYYADSVKGRFTISRDNAKNTVYLQMNSLKPEDTAVYYCYWYDYWGQGTQVTVSS”, the “polyreactivity (PSR sort gate)” value is reported as “high polyreactivity”.
With “QVQLVESGGGLVQAGGSLRLSCAASGSIFPDYGMGWYRQAPGKEREFVAAIDWSGTSTYYADSVKGRFTISRDNAKNTVYLQMNSLKPEDTAVYYCAARWDKSPFKLYDSWGQGTQVTVSS” the “polyreactivity (PSR sort gate)” value was “low polyreactivity”.
With “QVQLVESGGGLVQAGGSLRLSCAASGSIFPEYAMGWYRQAPGKERELVAAITTSGGSTYYADSVKGRFTISRDNAKNTVYLQMNSLKPEDTAVYYCAVEYLVYLDYTYDYWGQGTQVTVSS” the “polyreactivity (PSR sort gate)” value was “low polyreactivity”.
With “QVQLVESGGGLVQAGGSLRLSCAASGSIFPFNAMGWYRPAPGKERELVAAITSGGSTNYADSVKGRFTISRDNAKNTVYFQMNSLKPEDTAVYYCAADWRYWRWAFDYWGQGTQVTVSS” the “polyreactivity (PSR sort gate)” value was “high polyreactivity”.
In the case of “QVQLVESGGGLVQAGGSLRLSCAASGSIFPFNAMGWYRPAPGKERELVAAITSGGSTNYADSVKGRFTISRDNAKNTVYLQMNSLKPEDTADYYCAADWRYWRWAFDYWGQGTQVTVSS”, the “polyreactivity (PSR sort gate)” value is reported as “high polyreactivity”.
With “QVQLVESGGGLVQAGGSLRLSCAASGSIFPFNAMGWYRQAPGKERELVAAISVNGGTTYYADSVKGRFTISRDNAKNTVYLQMNSLKPEDTAVYYCNARRAYLYYVSYRYGYWGQGTQVTVSS” the “polyreactivity (PSR sort gate)” value was “low polyreactivity”.
With “QVQLVESGGGLVQAGGSLRLSCAASGSIFPFNAMGWYRQAPGKERELVAAITRSGGSTYYADSVKGRFTISRDNAKNTVYLQMNSLKPEDTAVYYCANDPEWPLPDFYYWGQGTQVTVSS” the “polyreactivity (PSR sort gate)” value was “low polyreactivity”.
With “QVQLVESGGGLVQAGGSLRLSCAASGSIFPGNAMGWYRQAPGKERELVAAIDFSGGSTYYADSVKGRFTISRDNAKNTVYLQMNSLKPEDTAVYYCAASVYPYYGYGYWGQGTQVTVSS” the “polyreactivity (PSR sort gate)” value was “low polyreactivity”.
For “QVQLVESGGGLVQAGGSLRLSCAASGSIFPGNAMGWYRQAPGKERELVASINWSGGSTYYADSVKGRFTISRDNANNTVYLQMNSLKPEDTAVYYCNADPGYYDYDYWGQGTQVTVSS”, the “polyreactivity (PSR sort gate)” value was “low polyreactivity”.
For “QVQLVESGGGLVQAGGSLRLSCAASGSIFPGYAMGWYRPAPGKERELVAAITDSGVSTYYADSVKGRFTISRDNAKNTVYLQMNSLKPEDTAVYYCARDNWQWYPSTWYDYWGQGTQVTVSS”, the “polyreactivity (PSR sort gate)” value was “high polyreactivity”.
With “QVQLVESGGGLVQAGGSLRLSCAASGSIFPGYPMGWYRQAPGKERELVAAISRSGGITYYADSVKGRFTISRDNAKNTVYLQMNSLKPEDTAVYYCAKTLPSNGHYDYWGQGTQVTVSS” the “polyreactivity (PSR sort gate)” value was “low polyreactivity”.
With “QVQLVESGGGLVQAGGSLRLSCAASGSIFPGYTMGWYRQAPGKERELVAAISWSDGSTYYADSVKGRFTISRDNAKNTVYLQMNSLKPDDTAVYYCNRDYRGPYYYWGQGTQVTVSS” the “polyreactivity (PSR sort gate)” value was “high polyreactivity”.
In the case of “QVQLVESGGGLVQAGGSLRLSCAASGSIFPHNAMGWYRPAPGKERELVAAISSGGSTNYADSVKGRFTISRDNANNTVYLQLNSLKPEDTAVYYCAKSIDGWYWRRRRYDYWGQGTQVTVSS”, the “polyreactivity (PSR sort gate)” value is reported as “low polyreactivity”.
For “QVQLVESGGGLVQAGGSLRLSCAASGSIFPHNAMGWYRQAPGKERELVAAITTIGGSTYYADSVKGRFTISRDNAKNTVYLQRNSLKPEDTAVYYCAADCATVLGFYTYDYWGQGTQVTVSS”, the “polyreactivity (PSR sort gate)” value was “low polyreactivity”.
In the case of “QVQLVESGGGLVQAGGSLRLSCAASGSIFPHYAMGWSRQAPGKERELVSAISSGGRTYYADSVKGRFTISRDNAKNTVYLQMNSLKPEDTAVYYCAARRIARKGYGYWGQGTQVTVSS”, the “polyreactivity (PSR sort gate)” value is reported as “high polyreactivity”.
With “QVQLVESGGGLVQAGGSLRLSCAASGSIFPHYAMGWYRQSPGKETELVAAISRSGTSTYYADSVKGRFTISRDNAKNTVYLQMNSLKPEDTAVYYCAALSNNGVRYYYWGQGTQVTVSS” the “polyreactivity (PSR sort gate)” value was “high polyreactivity”.
For “QVQLVESGGGLVQAGGSLRLSCAASGSIFPKYAMGWYRQAPGKERELVAAISRGGGSTYYADSVKGRFTISRDNAKYTVYLQMNSLKPEDTAVYYCAAQYYSLQWEYYYWGQGTQVTVSS”, the “polyreactivity (PSR sort gate)” value was “high polyreactivity”.
In the case of “QVQLVESGGGLVQAGGSLRLSCAASGSIFPLYAMGWYRQAPGKERELVADITVSGGSTYNADSVKGRFTISRDNAKNTVYLQMNSLKPEDTAVYYCNADDRSPFPDYWWYPYDYDYWGQGTQVTVSS”, the “polyreactivity (PSR sort gate)” value is reported as “low polyreactivity”.
In the case of “QVQLVESGGGLVQAGGSLRLSCAASGSIFPLYDMGWYRPAPGKERELVAGISSGGSTNYADSVKGRFTISRDNAKNTVYLQMNSLKPEDTAVYYCAATGSSRYGYWGQGTQVTVSS”, the “polyreactivity (PSR sort gate)” value is reported as “low polyreactivity”.
With “QVQLVESGGGLVQAGGSLRLSCAASGSIFPNNDMGWYRQAPGKERELVAAITTRGTSTYYADSVKGRFTISRDNAKNTVYLQMNSLKPEDTAVYYCAVGRRGDSAGGVAYYYWGQGTQVTVSS” the “polyreactivity (PSR sort gate)” value was “low polyreactivity”.
In the case of “QVQLVESGGGLVQAGGSLRLSCAASGSIFPPNAMAWYRQAPGKEREFVAAITESGGSTRYADSVKGRFTISRDNAKNTVYLQMNSLKPEDTAVYYCAARSYRYSTHGTYRYYYWGQGTQVTVSS”, the “polyreactivity (PSR sort gate)” value is reported as “high polyreactivity”.
With “QVQLVESGGGLVQAGGSLRLSCAASGSIFPPNAMGWYRQAPGKERELVAAISRRGGSTYYADSVKGRFTISRDNAKNTVYLQMNSLKPEDTAVYYCAARGGQMEYWGQGTQVTVSS” the “polyreactivity (PSR sort gate)” value was “high polyreactivity”.
In the case of “QVQLVESGGGLVQAGGSLRLSCAASGSIFPPYAIGSYRQAPGKERELVATITIRGGSTYYADSVKGRFTISRDNAKNTVYLQMNSLKPEDTAVYYCAADYTKYYRRYYYWGQGTQVTVSS”, the “polyreactivity (PSR sort gate)” value is reported as “high polyreactivity”.
In the case of “QVQLVESGGGLVQAGGSLRLSCAASGSIFPQYAIGWYRQAPGKERELVAAITRSGGGTHYADSVKGRFTISRDNAKNTVYLQMNSLKPEDTAVYYCAKAGYRSEFEYWGQGTQVTVSS”, the “polyreactivity (PSR sort gate)” value is reported as “low polyreactivity”.
With “QVQLVESGGGLVQAGGSLRLSCAASGSIFPRNAMGWYRQAPGKERELVAAIRKSGGSTYYADSVKGRFTISRDNAKNTVYLQMNSLKPEDTAVYYCAKTYSVSSWQSPIYNYWGQGTQVTVSS” the “polyreactivity (PSR sort gate)” value was “low polyreactivity”.
With “QVQLVESGGGLVQAGGSLRLSCAASGSIFPRNAMGWYRQAPGKERELVAAITTTGGITHYADSVKGRFTISRDNAKNTVYLLMNSLKPEDTAVYYCNASYEYNAGRVETEYDYWGQGTKVTVSS” the “polyreactivity (PSR sort gate)” value was “low polyreactivity”.
